The target in this assay is T1, elongated peptide GPPGPPGRLVD (human).
T1 construct: The range follows from the stated cleavage site V1709-D1710 and the peptide length
T1 peptide: GPPGPPGRLVD
Briefly: competitive ELISA on biotin-… coated streptavidin plates. As for the experimental part: A competitive ELISA using the monoclonal antibody raised against C7 was performed using the following procedure:
Streptavidin-coated plates were coated with 100 μL/well of 2.5 ng/mL biotin-labeled peptide (Biotin-[…], SEQ ID NO: 10) diluted in assay buffer (50 mM TBS-BTB, 2 g/L NaCl, pH 8.0) and incubated at 20° C., 300 rpm shaking for 30 minutes. Plates were washed five times in washing buffer ([…] TRIS, 50 mM NaCl, pH 7.2). Sample or standard peptide (20 μL) was added in double determinations and followed immediately by addition of 100 μL/well of 200 ng/mL HRP-labeled monoclonal antibody diluted in assay buffer and plates were incubated at 20° C., 300 rpm shaking for 3 hours. The standard peptide was a synthetic peptide ([…], SEQ ID NO: 1) with a starting concentration of 125 ng/ml and diluted 2-fold to create an 11 points calibration curve (FIG. 1). After incubation, plates were washed five times in washing buffer. A volume of 100 μL 3,3′, 5,5′-tetramethylbenzidine (TMB) was added and incubated for 15 min at 20° C. in the dark. To stop the enzyme reaction of TMB, […] 0.1% sulphuric acid was added and the absorbance was measured at 450 nm with 650 nm as the reference using an ELISA reader. A calibration curve was plotted using a 4-parametric mathematical fit model. […] All samples were measured within the range of the assay. […]
Background: ELISA stands for enzyme-linked immunosorbent assay.

B1: monoclonal antibody raised against the C-terminal neo-epitope amino acid sequence …-COOH (C7) (antibody, mouse IgG1, kappa, V domains shown)
VH: EVQLQQSGPELVKPGASVKISCKTSGYTFIENTMNWVKQSHGKSLEWIGGINPKIGGSIYNQKFQDKATLTVDKSSSTAYMELRSLTSDDSAVYYCARGIYDEGWHFDVWGAGTTVTVSS
VL: DIVMTQAAFSNPVTLGTSASISCRSSQSLLYSNGITYLYWYLQKPGQSPQLLIYQMSNLASGVPDRFSSSGSGTDFTLRISRVEAEDVGVYYCAQNLELPWTFGGGTKLEIKR
notes: also called monoclonal antibody raised against C7; HRP-labeled monoclonal antibody
For B1, the binding result was “no binding”.

The values are drawn from US20250012810A1 (NORDIC BIOSCIENCE A S, published 2025).
